Data set [1] has as its target T1, NeqSSB-like protein (Nanoarchaeum equitans Kin4-M, UniProt Q74MP9 2-243).
T1 sequence: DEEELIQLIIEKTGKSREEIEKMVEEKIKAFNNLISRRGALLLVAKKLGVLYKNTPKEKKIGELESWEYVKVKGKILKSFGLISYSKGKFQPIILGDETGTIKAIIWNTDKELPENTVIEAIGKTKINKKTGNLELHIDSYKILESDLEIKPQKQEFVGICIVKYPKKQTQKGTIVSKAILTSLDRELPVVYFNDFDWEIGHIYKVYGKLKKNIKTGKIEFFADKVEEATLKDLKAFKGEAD
The experiment in a line: competition EMSA; mixed with 100 bp dsDNA; ssDNA bound preferentially at low protein; EMSA: 20 mM Tris-HCl pH 7.5, 100 mM NaCl, 1 mM EDTA, 25 C, 10 min; fluorescence: 20 mM Tris-HCl pH 7.5, 1 mM EDTA, 2/100/500 mM NaCl, 25 C; SPR: 10 mM Hepes pH. The following applies: protein: recombinant; tags: N-terminal His tag with TEV site, removed by TEV; label: 5' fluorescein.

The target of data set [2] is T1, NeqSSB-like protein. Nature of the data set: EMSA; 10 pmol DNA; EMSA: 20 mM Tris-HCl pH 7.5, 100 mM NaCl, 1 mM EDTA, 25 C, 10 min; fluorescence: 20 mM Tris-HCl pH 7.5, 1 mM EDTA, 2/100/500 mM NaCl, 25 C; SPR: 10 mM Hepes pH. The conditions noted are these: protein: recombinant; tags: N-terminal His tag with TEV site, removed by TEV; label: 5' fluorescein. For orientation: Mobility shift assays separate free from complexed probe on a gel.

The target of data set [3] is EcoSSB (Escherichia coli, UniProt P0AGE0 1-178). Nature of the data set: SPR; kon 3.45e4 1/Ms; koff 1.85e-4 1/s; EMSA: 20 mM Tris-HCl pH 7.5, 100 mM NaCl, 1 mM EDTA, 25 C, 10 min; fluorescence: 20 mM Tris-HCl pH 7.5, 1 mM EDTA, 2/100/500 mM NaCl, 25 C; SPR: 10 mM Hepes pH. The following applies: protein: recombinant; chain copies: 4; label: 3' biotin. On the technique in general: In SPR one partner is held on a chip, and binding of the other changes the refractive index at the surface.
Sequence of EcoSSB (P0AGE0 whole entry): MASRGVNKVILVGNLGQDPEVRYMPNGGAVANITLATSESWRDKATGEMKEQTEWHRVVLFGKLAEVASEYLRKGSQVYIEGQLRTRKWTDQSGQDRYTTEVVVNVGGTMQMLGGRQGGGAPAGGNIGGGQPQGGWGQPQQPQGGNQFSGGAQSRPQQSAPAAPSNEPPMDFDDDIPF

Data set [4] has as its target T1, NeqSSB-like protein. The experiment in a line: SPR; kon 7.91e3 1/Ms; koff 2.39e-2 1/s; EMSA: 20 mM Tris-HCl pH 7.5, 100 mM NaCl, 1 mM EDTA, 25 C, 10 min; fluorescence: 20 mM Tris-HCl pH 7.5, 1 mM EDTA, 2/100/500 mM NaCl, 25 C; SPR: 10 mM Hepes pH. The conditions noted are these: protein: recombinant; tags: N-terminal His tag with TEV site, removed by TEV; label: 3' biotin.

Data set [5] addresses T1, NeqSSB-like protein. The experiment in a line: SPR; kon 8.30e3 1/Ms; koff 4.89e-2 1/s; EMSA: 20 mM Tris-HCl pH 7.5, 100 mM NaCl, 1 mM EDTA, 25 C, 10 min; fluorescence: 20 mM Tris-HCl pH 7.5, 1 mM EDTA, 2/100/500 mM NaCl, 25 C; SPR: 10 mM Hepes pH. The following applies: protein: recombinant; tags: N-terminal His tag with TEV site, removed by TEV; label: 3' biotin on strand 1; blunt.

Data set [6] deals with T1, NeqSSB-like protein. Nature of the data set: EMSA; 10 pmol DNA; smeary shift; EMSA: 20 mM Tris-HCl pH 7.5, 100 mM NaCl, 1 mM EDTA, 25 C, 10 min; fluorescence: 20 mM Tris-HCl pH 7.5, 1 mM EDTA, 2/100/500 mM NaCl, 25 C; SPR: 10 mM Hepes pH. The following applies: protein: recombinant; tags: N-terminal His tag with TEV site, removed by TEV; label: 5' fluorescein.

B1: (dT)76 (ssDNA)
DNA: TTTTTTTTTTTTTTTTTTTTTTTTTTTTTTTTTTTTTTTTTTTTTTTTTTTTTTTTTTTTTTTTTTTTTTTTTTTT
Turning to B1, the binding result in data set [1] is “binds”.

B2: (dT)120 (ssDNA)
DNA: TTTTTTTTTTTTTTTTTTTTTTTTTTTTTTTTTTTTTTTTTTTTTTTTTTTTTTTTTTTTTTTTTTTTTTTTTTTTTTTTTTTTTTTTTTTTTTTTTTTTTTTTTTTTTTTTTTTTTTTT
With B2, the binding result in data set [2] is given as “binds”.

B3: ssDNA 60-mer (ssDNA)
DNA: AATTCTGGGTGTGTGGGTGTGTGGGTGTGTGGGTGTGGTCAAGTTGACTACGTATACATC
With B3, the Kd in data set [3] is 0.00536 µM; in data set [4], 2.66 µM.

B4: dsDNA 60-mer (dsDNA)
DNA 1: AATTCTGGGTGTGTGGGTGTGTGGGTGTGTGGGTGTGGTCAAGTTGACTACGTATACATC
DNA 2: GATGTATACGTAGTCAACTTGACCACACCCACACACCCACACACCCACACACCCAGAATT
B4: in data set [5], the Kd was 5.26 µM.

As to TTTTTTTTTTTTTTTTTTTTTTTTTTTTTTTTTTT (ssDNA) [(dT)35], in data set [6], the binding result was “binds”.

The Kd is the equilibrium constant for the complex coming apart.

For the origin of these results see publication PMC4431734, “Characterization of a Single-Stranded DNA-Binding-Like Protein from Nanoarchaeum equitans—A Nucleic Acid Binding Protein with Broad Substrate Specificity”.
